Patent publication US6485937

Target: FLAG-epitope tagged HIV tat interacting protein of 30 kDa (f-TIP30) (human (isolated from HeLa cells)) (UniProt Q9BUP3)
Experiment: affinity chromatography of B. mori fat bodies extract, SDS-PAGE of the unbound fraction; the filing puts this down to saturated beads

UniProt Q9BUP3, sequence (Q9BUP3 other isoform, or with tags, fused parts or gaps limits assumed): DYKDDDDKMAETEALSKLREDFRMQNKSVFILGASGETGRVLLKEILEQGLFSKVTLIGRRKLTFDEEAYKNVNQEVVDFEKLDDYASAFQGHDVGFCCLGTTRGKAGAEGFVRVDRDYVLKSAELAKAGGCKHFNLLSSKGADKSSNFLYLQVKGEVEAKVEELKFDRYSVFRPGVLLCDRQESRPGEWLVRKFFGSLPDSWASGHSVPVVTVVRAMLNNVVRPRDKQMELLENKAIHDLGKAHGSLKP

share of expressed protein remaining in the unbound fraction: > 30%
Substance: M2-Agarose resin (Sigma) (antibody)
